Assay results as given in US20060210473A1.

Key:
human endoglin (human) [1] = target: human endoglin (human) (UniProt P17813); test: FACS on U937; one grade for both antibodies; + is CFI 5-25
human endoglin (human) [2] = target: human endoglin (human) (UniProt P17813); test: FACS on A375M and T8 melanoma lines; one grade for both antibodies; + is CFI 5-25
human endoglin (human) [3] = target: human endoglin (human) (UniProt P17813); test: FACS on MDA-MB-231 and SKBR3 breast tumor lines; one grade for both antibodies; + is CFI 5-25
human endoglin (human) [4] = target: human endoglin (human) (UniProt P17813); test: FACS on ECV-304; one grade for both antibodies; ++ is CFI 25-50
human endoglin (human) [5] = target: human endoglin (human) (UniProt P17813); test: FACS on HT-1080 and SAOS-2 sarcoma lines; one grade for both antibodies; + is CFI 5-25
human endoglin (human) [6] = target: human endoglin (human) (UniProt P17813); test: FACS, 20 µg/ml TEC-11 on the sorted endoglin^lo fraction of postconfluent HUVEC; mean of 2 studies, SD 2.4
human endoglin (human) [7] = target: human endoglin (human) (UniProt P17813); test: FACS on HUVEC, concentration giving half-maximal fluorescence
human endoglin (human) [8] = target: human endoglin (human) (UniProt P17813); test: indirect immunofluorescence, FACS on HUVEC, 10 µg/ml
human endoglin (human) [9] = target: human endoglin (human) (UniProt P17813); test: FACS, 20 µg/ml TEC-11 on the sorted endoglin^hi fraction of postconfluent HUVEC; mean of 2 studies, SD 3.8
human endoglin (human) [10] = target: human endoglin (human) (UniProt P17813); test: FACS competition on HUVEC; unlabelled TEC-11 against biotinylated TEC-4 (competitor), ratio 1:1
human endoglin (human) [11] = target: human endoglin (human) (UniProt P17813); test: FACS on HUVEC; one grade for both antibodies; ++++ is CFI >100
human endoglin (human) [12] = target: human endoglin (human) (UniProt P17813); test: FACS on L-endoglin fibroblast transfectant; one grade for both antibodies; +++ is CFI 50-100
human endoglin (human) [13] = target: human endoglin (human) (UniProt P17813); test: cell-based or functional assay
human endoglin (human) [14] = target: human endoglin (human) (UniProt P17813); test: FACS competition on HUVEC; unlabelled TEC-4 against biotinylated TEC-11 (competitor), ratio TEC-11:TEC-4 1:100
human endoglin (human) [15] = target: human endoglin (human) (UniProt P17813); test: FACS competition on HUVEC; unlabelled TEC-4 against biotinylated TEC-11 (competitor), ratio 1:1

Row | Substance | corrected fluorescence intensity (CFI) (human endoglin (human) [1]) | corrected fluorescence intensity (CFI) (human endoglin (human) [2]) | corrected fluorescence intensity (CFI) (human endoglin (human) [3]) | corrected fluorescence intensity (CFI) (human endoglin (human) [4]) | corrected fluorescence intensity (CFI) (human endoglin (human) [5]) | MFI (human endoglin (human) [6]) | EC50 (human endoglin (human) [7]) | specific mean fluorescence intensity (MFI) (human endoglin (human) [8]) | MFI (human endoglin (human) [9]) | percent blocking (human endoglin (human) [10]) | corrected fluorescence intensity (CFI) (human endoglin (human) [11]) | corrected fluorescence intensity (CFI) (human endoglin (human) [12]) | complement fixation, relative to TEC-4 (human endoglin (human) [13]) | complement-mediated lysis of HUVEC (trypan blue) (human endoglin (human) [13]) | percent blocking (human endoglin (human) [14]) | percent blocking (human endoglin (human) [15])
1 | TEC-11 (antibody) | 5 to 25 cfi | 5 to 25 cfi | 5 to 25 cfi | 25 to 50 cfi | 5 to 25 cfi | 61.6 MFI | 0.4 µg/mL | 200 MFI | 270 MFI | 51% | > 100 cfi | 50 to 100 cfi | 100 fold | 50 % lysis |  | 
2 | TEC-4 (antibody) | 5 to 25 cfi | 5 to 25 cfi | 5 to 25 cfi | 25 to 50 cfi | 5 to 25 cfi |  | 4 µg/mL | 200 MFI |  |  | > 100 cfi | 50 to 100 cfi |  | 48 % lysis | 20% | 1%
